pKd: −log10 of the molar value.
Molecular target: GST-NTF2L-F33W (human)
Assay: SPR

N_(1–25)-WT peptide (from UniProt P0DTC9 1-25)
pKd: 5.72
